Self-cleavage data for 34 variants are collected here from the RNAGym collection of RNA variant scans (doi:10.1093/nar/gkz1192).

B1: CPEB3 Ribozyme (parent)
chain: UAACAGGGGGCCACAGCAGAAGCGUUCACGUCGCAGCCCCUGUCAGAUUCUGGUGAAUCUGCGAAUUCUGCUGUAUAUCUC

This series covers variants of B1. Description: self-cleavage, relative activity (ratio to wild type); higher = more cleavage; in vitro, sequencing. Put shortly:
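For each CPEB3 ribozyme variant, relative activity is its cleaved/total read fraction divided by the unmutated ribozyme's. Barcoded error-prone PCR libraries were transcribed by T7 RNA polymerase (5 hours, 37°C) and held in DNase I for 15 min before an EDTA stop, with cleavage occurring throughout. Template-switching reverse transcription and Illumina sequencing were used to read the RNAs. A 5-read minimum applied, and results are the mean of three batches.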
On to UAACAGGGGCCCACAGCAGAAGCGUUCACGUCGCAGCCCCUGUCAGAUUCUGGUGAAUCUGCGAGUUCUGCUGUAUAUCUC [G10C A65G], for which the self-cleavage amounted to 0.33.
The result for UAACAGGGGCCCACAGCAGAAGCGUUCACGUCGCAGCCCCCGUCAGAUUCUGGUGAAUCUGCGAAUUCUGCUGUAUAUCUC [G10C U41C] reads 0.1.
The result for UAACAGGGGCCCACAGCAGAAGCGUUCACGUCGCAGCCCCAGUCAGAUUCUGGUGAAUCUGCGAAUUCUGCUGUAUAUCUC [G10C U41A] reads 0.33; that for UAACAGGGGCCCACAGCAGAAGCUUUCACGUCGCAGCCCCUGUCAGAUUCUGGUGAAUCUGCGAAUUCUGCUGUAUAUCUC [G10C G24U], 0.15.
On to UAACAGGGGCCCACAGCAGAAGCGUUCACGUCGCAGCCCCUGUCAGAUUCUGGUGAAUCUGCGAAUUCUGAUGUAUAUCUC [G10C C71A], for which the self-cleavage came to 0.12.
The result for UAACAGGGGCCCACAGCAGAAGCGUUCACGUCGCAGCCCCUGUCAGUUUCUGGUGAAUCUGCGAAUUCUGCUGUAUAUCUC [G10C A47U] reads 0.15; that for UAACAGGGGCCCACAGCAGAAGCGUUCACGUCGCAGCCCCUGUCAGAUUCUGGUGAAUCUGCGAAUUCUGCUGGAUAUCUC [G10C U74G], 0.26.
The result for UAACAGGGGCCCACAGCAGAAGCGUUCACGUCGCAGCCCCUGUCAGAUUCUGGUGAAUCUGCGAAUUCUGCUGAAUAUCUC [G10C U74A] reads 0.26; that for UAACAGGGGCCCACAGCAGAAGCGUUCACGUCGCAGCCCCUGUCAGAUUCUGGUGAAUCUGCGAAUUCUGCUAUAUAUCUC [G10C G73A], 0.35.
Then UAACAGGGGUCCACGGCAGAAGCGUUCACGUCGCAGCCCCUGUCAGAUUCUGGUGAAUCUGCGAAUUCUGCUGUAUAUCUC [G10U A15G], with 0.18; and UAACAGGGGUCCUCAGCAGAAGCGUUCACGUCGCAGCCCCUGUCAGAUUCUGGUGAAUCUGCGAAUUCUGCUGUAUAUCUC [G10U A13U], with 0.1; and UAACAGGGGUCCGCAGCAGAAGCGUUCACGUCGCAGCCCCUGUCAGAUUCUGGUGAAUCUGCGAAUUCUGCUGUAUAUCUC [G10U A13G], with 0.11.
For the variant UAACAGGGGCCCACAGCAGAAGCGUUCACGUCGCAGCCCCUGCCAGAUUCUGGUGAAUCUGCGAAUUCUGCUGUAUAUCUC [G10C U43C], the self-cleavage came out at 0.13.
With UAACAGGGGCCCACAGCAGAAGCGUUCACGUCGCAGCCCCUGACAGAUUCUGGUGAAUCUGCGAAUUCUGCUGUAUAUCUC [G10C U43A], the self-cleavage is 0.38.
UAACAGGGGCCCACAGCAGAAGCGUUCACGUCGCAGCCCCUGUCAGAUUCUGGUGAAUCUGCGGAUUCUGCUGUAUAUCUC [G10C A64G]: the self-cleavage was found to be 0.25.
In the case of UAACAGGGGCCCACAGCAGAAGCGUUCACGUCGCAGCCCCUGUCAGAUUCUGGUGAAUCUGCGUAUUCUGCUGUAUAUCUC [G10C A64U], the self-cleavage was found to be 0.15.
Then UAACAGGGGUCCACAGCAGAAGCGUUCACGUCGCAGCCCCUGUCAGAUUCUGGUGAAUCUGCGAAUUCUGCUGUAUAUCUC [G10U], with 0.23; and UAACAGGGGCCCACAGCAGAAGCGUUCGCGUCGCAGCCCCUGUCAGAUUCUGGUGAAUCUGCGAAUUCUGCUGUAUAUCUC [G10C A28G], with 0.14; and UAACAGGGGCCCACAGCAGAAGCGUUCCCGUCGCAGCCCCUGUCAGAUUCUGGUGAAUCUGCGAAUUCUGCUGUAUAUCUC [G10C A28C], with 0.16.
For UAACAGGGGCCCAUAGCAGAAGCGUUCACGUCGCAGCCCCUGUCAGAUUCUGGUGAAUCUGCGAAUUCUGCUGUAUAUCUC [G10C C14U], the self-cleavage was determined as 0.5.
With UAACAGGGGCACACAGCAGAAGCGUUCACGUCGCAGCCCCUGUCAGAUUCUGGUGAAUCUGCGAAUUCUGCUGUAUAUCUC [G10C C11A], the self-cleavage was found to be 0.33.
In the case of UAACAGGGGCCCACAGCAGAAGCGUUCACGUCGCAGCCCCUUUCAGAUUCUGGUGAAUCUGCGAAUUCUGCUGUAUAUCUC [G10C G42U], the self-cleavage stood at 0.16.
With UAACAGGGGCCCACAGCAGAAGCGUUCACGUCACAGCCCCUGUCAGAUUCUGGUGAAUCUGCGAAUUCUGCUGUAUAUCUC [G10C G33A], the self-cleavage turned out to be 0.16.
The result for UAACAGGGGCCCACAGCAGAAGCGUUCACGUCGCAGCCCCUGUCAGAUUCUGGUGAAUCUGCGAAUCCUGCUGUAUAUCUC [G10C U67C] reads 0.37; that for UAACAGGGGCCCACAGCAGAAGCGUUCACGUCGCAGCCCCUGUCAGAUUCUGGUGAAUCUGCGAAUACUGCUGUAUAUCUC [G10C U67A], 0.17.
As for UAACAGGGGCCCACAGCAGAAGCGUGCACGUCGCAGCCCCUGUCAGAUUCUGGUGAAUCUGCGAAUUCUGCUGUAUAUCUC [G10C U26G], the self-cleavage turned out to be 0.39.
Turning to UAACAGGGGCCCACAGCAGAAGCGUCCACGUCGCAGCCCCUGUCAGAUUCUGGUGAAUCUGCGAAUUCUGCUGUAUAUCUC [G10C U26C], the self-cleavage came out at 0.21.
UAACAGGGGCCCACAGCAGAAGCGUUCACGUCGCAGCCCCUGUCAGAUUCUGGUGAGUCUGCGAAUUCUGCUGUAUAUCUC [G10C A57G]: the self-cleavage is 0.21.
UAACAGGGGCCCACAGCAGAAGCGUUCACGUCGCAGCCCCUGUCAGAUUCCGGUGAAUCUGCGAAUUCUGCUGUAUAUCUC [G10C U51C]: the self-cleavage stood at 0.22.
The result for UAACAGGGGCCCACAGCAGAAGCGUUCACGUCGCAGCCCCUGUCUGAUUCUGGUGAAUCUGCGAAUUCUGCUGUAUAUCUC [G10C A45U] reads 0.16.
With UAACAGGGGCCCACAGCAGAAGCGUUCACGUCGCAGCCCCUGUCGGAUUCUGGUGAAUCUGCGAAUUCUGCUGUAUAUCUC [G10C A45G], the self-cleavage is 0.13.
For the variant UAACAGGGGCCCACAGCAGAAGCGUUCACGUCGCGGCCCCUGUCAGAUUCUGGUGAAUCUGCGAAUUCUGCUGUAUAUCUC [G10C A35G], the self-cleavage stood at 0.28.
In the case of UAACAGGGGUCCACAGCAGAGGCGUUCACGUCGCAGCCCCUGUCAGAUUCUGGUGAAUCUGCGAAUUCUGCUGUAUAUCUC [G10U A21G], the self-cleavage turned out to be 0.08.
The result for UAACAGGGGUCCACAGCAGACGCGUUCACGUCGCAGCCCCUGUCAGAUUCUGGUGAAUCUGCGAAUUCUGCUGUAUAUCUC [G10U A21C] reads 0.06.
